# Data: patent US20060115475A1 (published 2006)
# Experiments:
# [1] = molecular target: T1, Human hexa-histidine-TLR3 (human, UniProt O15455 24-703, limits assumed); test: Biacore 3000, hexa-histidine-TLR3 captured on anti-His antibody, mAb in solution, 25 C, 1:1 model
# T1 construct: Captured by anti-His antibody on a CM5 chip; also called TLR3 (captured on the chip surface); not shown: hexa-histidine tag
# [2] = molecular target: T2, soluble human TLR3 extracellular domain (human, UniProt O15455 24-703); test: ELISA, coated soluble hTLR3 extracellular domain, HRP-labeled anti-human IgG
# T2 construct: also called hTLR3 extracellular domain; extracellular domain of human TLR3
# [3] = molecular target: T2, soluble human TLR3 extracellular domain; test: Biacore 2000, mAb captured on protein A, TLR3 in solution, 25 C, 1:1 model
# Procedure: Measurement of binding affinity by Biacore was performed by mAb capture and TLR3 capture techniques. MAb capture analysis was performed at 25° C. using a Biacore 2000 biosensor equipped with a CM5 chip with surfaces modified with protein A (6,000 RU) at 25° C. by standard amine coupling. Antibody was diluted to 30 nM and captured for one minute on different protein A surfaces. TLR3 was injected at 0, 0.1, 0.3, 1.0, 3.0, and 9.0 nM and associations and dissociations were monitored for 5 minutes. The protein A modified surfaces were regenerated using two 6-second pulses 100 mM phosphoric acid. Available binding data sets were fit to a 1:1 interaction model (CLAMP™). The rate constants and their ratio (KD=kd/kₐ) and the error of fit carried over the estimate of the apparent equilibrium constants were calculated.
# [4] = molecular target: T2, soluble human TLR3 extracellular domain; test: ELISA, TLR3 binding assay as in Example 20
Kd [1] [nM],EC50 [2] [µg/mL],Kd [3] [nM],EC50 [4] [µg/mL],Binder
1.7,–,–,–,"human-adapted anti-TLR3 mAb HV1/LV1 (antibody, human IgG4, V domains shown, Human IgG4 (S228P, F234A, L235A), kappa; not shown: human kappa light chain constant region) VH: QVQLVQSGAEVKKPGASVKVSCKASGYTFTTYWIHWVRQAPGQRLEWMGEINPNNGRINYNEKFKTRVTITRDTSASTAYMELSSLRSEDTAVYYCARVGVMITTFPYWGQGTLVTVSS VL: DIQMTQSPSSLSASVGDRVTITCRASGNIHNYLAWYQQKPGKAPKLLIYNAKTLADGVPSRFSGSGSGTDFTLTISSLQPEDFATYYCQHFWSTPFTFGQGTKLEIK"
0.65,0.0155,2,–,"human-adapted anti-TLR3 mAb HV5/LV1 (antibody, human IgG4, V domains shown, Human IgG4 (S228P, F234A, L235A), kappa; not shown: human kappa light chain constant region) VH: QVQLVQSGAEVKKPGASVKVSCKASGYTFTTYWIHWVRQATGQGLEWMGEINPNNGRINYNEKFKTRVTMTRNTSISTAYMELSSLRSEDTAVYYCARVGVMITTFPYWGQGTLVTVSS VL: DIQMTQSPSSLSASVGDRVTITCRASGNIHNYLAWYQQKPGKAPKLLIYNAKTLADGVPSRFSGSGSGTDFTLTISSLQPEDFATYYCQHFWSTPFTFGQGTKLEIK"
–,0.0187,–,–,"human-adapted anti-TLR3 mAb HV4/LV5 (antibody, human IgG4, V domains shown, Human IgG4 (S228P, F234A, L235A), kappa; not shown: human kappa light chain constant region) VH: QVQLVQSGAEVKKPGASVKVSCKASGYTFTTYWIHWVRQAPGQGLEWMGEINPNNGRINYNEKFKTRVTMTRDTSISTAYMELSRLRSDDTAVYYCARVGVMITTFPYWGQGTLVTVSS VL: DIQMTQSPSSLSASVGDRVTITCRASGNIHNYLAWYQQKPGKVPKLLIYNAKTLADGVPSRFSGSGSGTDFTLTISSLQPEDVATYYCQHFWSTPFTFGGGTKVEIK"
0.7,0.0137,1.1,–,"human-adapted anti-TLR3 mAb HV5/LV5 (antibody, human IgG4, V domains shown, Human IgG4 (S228P, F234A, L235A), kappa; not shown: human kappa light chain constant region) VH: QVQLVQSGAEVKKPGASVKVSCKASGYTFTTYWIHWVRQATGQGLEWMGEINPNNGRINYNEKFKTRVTMTRNTSISTAYMELSSLRSEDTAVYYCARVGVMITTFPYWGQGTLVTVSS VL: DIQMTQSPSSLSASVGDRVTITCRASGNIHNYLAWYQQKPGKVPKLLIYNAKTLADGVPSRFSGSGSGTDFTLTISSLQPEDVATYYCQHFWSTPFTFGGGTKVEIK"
–,0.118,–,–,"human-adapted anti-TLR3 mAb HV1/LV3 (antibody, human IgG4, V domains shown, Human IgG4 (S228P, F234A, L235A), kappa; not shown: human kappa light chain constant region) VH: QVQLVQSGAEVKKPGASVKVSCKASGYTFTTYWIHWVRQAPGQRLEWMGEINPNNGRINYNEKFKTRVTITRDTSASTAYMELSSLRSEDTAVYYCARVGVMITTFPYWGQGTLVTVSS VL: DIQMTQSPSSLSASVGDRVTITCRASGNIHNYLAWYQQKPGKAPKRLIYNAKTLADGVPSRFSGSGSGTEFTLTISSLQPEDFATYYCQHFWSTPFTFGQGTKLEIK"
–,–,–,0.0747,"human-adapted C1068 variant mAb HBV5 (Vh CDR3 M102I in the HV1/LV1 background) (antibody, V domains shown, Made in the HV1/LV1 background; not shown: human kappa light chain constant region) VH: QVQLVQSGAEVKKPGASVKVSCKASGYTFTTYWIHWVRQAPGQRLEWMGEINPNNGRINYNEKFKTRVTITRDTSASTAYMELSSLRSEDTAVYYCARVGVIITTFPYWGQGTLVTVSS VL: DIQMTQSPSSLSASVGDRVTITCRASGNIHNYLAWYQQKPGKAPKLLIYNAKTLADGVPSRFSGSGSGTDFTLTISSLQPEDFATYYCQHFWSTPFTFGQGTKLEIK"
–,0.0277,–,–,"human-adapted anti-TLR3 mAb HV1/LV5 (antibody, human IgG4, V domains shown, Human IgG4 (S228P, F234A, L235A), kappa; not shown: human kappa light chain constant region) VH: QVQLVQSGAEVKKPGASVKVSCKASGYTFTTYWIHWVRQAPGQRLEWMGEINPNNGRINYNEKFKTRVTITRDTSASTAYMELSSLRSEDTAVYYCARVGVMITTFPYWGQGTLVTVSS VL: DIQMTQSPSSLSASVGDRVTITCRASGNIHNYLAWYQQKPGKVPKLLIYNAKTLADGVPSRFSGSGSGTDFTLTISSLQPEDVATYYCQHFWSTPFTFGGGTKVEIK"
–,–,–,0.048,"human-adapted C1068 variant mAb HBV3 (Vh CDR2 N61A in the HV1/LV1 background) (antibody, V domains shown, Made in the HV1/LV1 background; not shown: human kappa light chain constant region) VH: QVQLVQSGAEVKKPGASVKVSCKASGYTFTTYWIHWVRQAPGQRLEWMGEINPNNGRINYAEKFKTRVTITRDTSASTAYMELSSLRSEDTAVYYCARVGVMITTFPYWGQGTLVTVSS VL: DIQMTQSPSSLSASVGDRVTITCRASGNIHNYLAWYQQKPGKAPKLLIYNAKTLADGVPSRFSGSGSGTDFTLTISSLQPEDFATYYCQHFWSTPFTFGQGTKLEIK"
–,–,–,0.0409,"human-adapted C1068 variant mAb HBV4 (Vh CDR2 F64G in the HV1/LV1 background) (antibody, V domains shown, Made in the HV1/LV1 background; not shown: human kappa light chain constant region) VH: QVQLVQSGAEVKKPGASVKVSCKASGYTFTTYWIHWVRQAPGQRLEWMGEINPNNGRINYNEKGKTRVTITRDTSASTAYMELSSLRSEDTAVYYCARVGVMITTFPYWGQGTLVTVSS VL: DIQMTQSPSSLSASVGDRVTITCRASGNIHNYLAWYQQKPGKAPKLLIYNAKTLADGVPSRFSGSGSGTDFTLTISSLQPEDFATYYCQHFWSTPFTFGQGTKLEIK"
–,0.0291,–,–,"human-adapted anti-TLR3 mAb HV4/LV1 (antibody, human IgG4, V domains shown, Human IgG4 (S228P, F234A, L235A), kappa; not shown: human kappa light chain constant region) VH: QVQLVQSGAEVKKPGASVKVSCKASGYTFTTYWIHWVRQAPGQGLEWMGEINPNNGRINYNEKFKTRVTMTRDTSISTAYMELSRLRSDDTAVYYCARVGVMITTFPYWGQGTLVTVSS VL: DIQMTQSPSSLSASVGDRVTITCRASGNIHNYLAWYQQKPGKAPKLLIYNAKTLADGVPSRFSGSGSGTDFTLTISSLQPEDFATYYCQHFWSTPFTFGQGTKLEIK"
